3 molecules from US20180244730A1 (OXFORD UNIVERSITY INNOVATION, published 2018) can be followed below.

The labels stand for the following.
B1: synthetic SnoopTag peptide (peptide)
peptide: KLGDIEFIKVNK
B2: RrgACatcher (designed binder)
chain: KLGDIEFIKVNKNDKKPLRGAVFSLQKQHPDYPDIYGAIDQNGTYQNVRTGEDGKLTFKNLSDGKYRLFENSEPAGYKPVQNKPIVAFQIVNGEVRDVTSIVPQ
B3: SnoopCatcher (designed binder)
chain: MGSSHHHHHHSSGLVPRGSHMKPLRGAVFSLQKQHPDYPDIYGAIDQNGTYQNVRTGEDGKLTFKNLSDGKYRLFENSEPAGYKPVQNKPIVAFQIVNGEVRDVTSIVPQDIPATYEFTNGKHYITNEPIPPK
notes: also called SnoopCatcher fused to a His-Tag

For assay [1], the target named is B3. Nature of the assay: electrospray ionization mass spectrometry.
The target of assay [2] is SnoopTag-MBP. The experiment in a line: mixing, SDS-PAGE with Coomassie staining.
Assay [3] addresses B3. Nature of the assay: mixing, SDS-PAGE with Coomassie staining.
Another assay addresses T1, SpyCatcher.
T1 construct: also called pDEST14-SpyCatcher (GenBank JQ478411, Addgene plasmid ID 35044)
The experiment in a line: mixing, SDS-PAGE with Coomassie staining.

For assay [4], the target named is SnoopTag-MBP. Nature of the assay: mixing, SDS-PAGE with Coomassie staining (covalent isopeptide adduct).

T1 sequence (chain, as listed by the source): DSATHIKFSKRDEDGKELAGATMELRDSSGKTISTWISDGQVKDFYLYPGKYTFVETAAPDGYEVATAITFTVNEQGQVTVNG

In the case of B1, the binding result in the assay with SnoopCatcher [1] is given as “binds”.

Turning to B2, the binding result in the assay with SnoopTag-MBP [2], with SnoopCatcher [3] and with SpyCatcher was “no binding” throughout. In the case of B3, the binding result with SnoopTag-MBP [4] is on record as “binds”.
